Series [1] concerns the target T1, Human Nectin-4 (Homo sapiens, UniProt Q96NY8).
T1 construct: purchased GE Healthcare 1006-72
T1 sequence (Q96NY8 32-510): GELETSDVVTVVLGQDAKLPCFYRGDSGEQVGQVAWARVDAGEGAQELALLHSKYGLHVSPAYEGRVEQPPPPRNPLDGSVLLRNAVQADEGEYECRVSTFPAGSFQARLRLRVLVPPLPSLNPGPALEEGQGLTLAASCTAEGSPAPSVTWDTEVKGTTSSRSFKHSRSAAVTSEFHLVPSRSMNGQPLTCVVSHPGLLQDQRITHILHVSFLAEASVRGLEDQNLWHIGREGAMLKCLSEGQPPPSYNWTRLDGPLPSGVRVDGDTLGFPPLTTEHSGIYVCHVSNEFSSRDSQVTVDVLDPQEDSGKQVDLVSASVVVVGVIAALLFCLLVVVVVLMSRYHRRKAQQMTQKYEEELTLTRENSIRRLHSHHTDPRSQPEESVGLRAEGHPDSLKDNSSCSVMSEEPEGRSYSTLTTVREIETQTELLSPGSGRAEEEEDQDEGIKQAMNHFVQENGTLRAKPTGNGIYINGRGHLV
Description: Binding capacity to Nectin-4 protein (SPR, Biacore 8K). On the procedure:
Test Example 1. Binding Capacity Test of the Compounds of the Present Invention to Nectin-4 Protein
To detect the affinity of the compound to be tested to the target protein Nectin-4 using the SPR method.
• Biacore 8K (GE Healthcare) • 96-well Plate (Cat #650101, greiner bio-one) • CM5 chip (Cat #BR-1005-30, GE Healthcare) • Amine Coupling Kit (Cat #BR-1000-50, GE Healthcare) • EDC • NHS • 1 M ethanolamine • 10 mM sodium acetate pH 4.5 (Cat #BR-1003-50, GE Healthcare) • DMSO (Cat #D4540, Sigma) • P20 (Cat #BR-1000-54, GE Healthcare) • PBS (Cat #BR-1006-72, GE Healthcare) • Nectin-4 (Cat #1006-72, GE Healthcare) 3. Experimental Protocol
In this experiment, the amino coupling method was used. The target protein Nectin-4 was directly immobilized on the CM5 chip using Biacore 8K. […] The final data were subjected to Kinetics fitting analysis based on a 1:1 model using Biacore Insight Evaluation Software (V 2.0.15.12933).
1) Preparation of the buffer: 10 mM PBS, pH 7.4, 137 mM NaCl, 2.7 mM KCl, 5% DMSO, and 0.05% P20.
2) Activation of the CM5 chip: The CM5 chip was activated with 400 mM EDC and 100 mM NHS at a flow rate of 10 μL/min for 420 seconds.
3) Coupling of the target protein: The target protein was diluted to 10 μg/mL with 10 mM sodium acetate (pH 4.5) and coupled at a flow rate of 10 μL/min for 284 s. The 1 #, 2 #, and 3 #channels on the chip were used in the experiment, and the coupling results were 1639.9RU, 1747.8RU, and 1702.2RU, respectively.
4) Blocking of the CM5 chip: The CM5 chip was blocked with 1 M ethanolamine at a flow rate of 10 μL/min for 420 seconds.
5) Analyte concentration: The compound to be tested was diluted with the buffer. The compound to be tested was diluted from 100 nM to 0.78 nM in a 2-fold gradient.
6) Sample injection analysis: Each concentration of the working solution of the compound to be tested corresponded to one cycle, with a flow rate of 30 μL/min for binding for 180 seconds and dissociating for 180 seconds. The last cycle was a 5% DMSO solvent correction cycle.
7) All results were subjected to kinetics fitting analysis based on a 1:1 model. […]
(In general: In SPR one partner is held on a chip, and binding of the other changes the refractive index at the surface.)

The nature of series [2]: Pharmacokinetic analysis in rat plasma. It counts as in vivo, SD rats. To be noted: Sprague-Dawley (SD), rat, SD rats, single IV 3 mg/kg, plasma. On the procedure:
Test Example 5: Pharmacokinetic Analysis of the Compounds of the Present Invention in Rat Plasma
To test the pharmacokinetics of the compounds of the present invention in SD rats.
The pharmacokinetic characteristics of the compound after intravenous injection were tested in rats according to a standard protocol. The compound to be tested was formulated into a clear solution using 25 mM L-histidine (pH=7) in 10% sucrose as a vehicle. Two rats were given a single intravenous injection of 3 mg/kg of the compound to be tested. Whole blood was collected at time points of 0.083, 0.25, 0.5, 1, 2, 4, 8, and 24 hours after administration to get plasma. The concentration of the compound of the present invention and the concentration of its potential metabolite MMAE were analyzed by the LC-MS/MS method, and the pharmacokinetic parameters were calculated by Phoenix WinNonlin software.

Series [3] is described as follows: Metabolic stability in kidney S9, Cynomolgus macaques. It counts as in vitro ADME. The note with it: cynomolgus macaque. Here is the method:
Test Example 8: Metabolic Stability of the Compounds of the Present Invention in Kidney S9 from Mice, Rats, Cynomolgus Macaques, and Humans
To investigate the metabolic stability of the compounds of the present invention in kidney S9 from mice, rats, Cynomolgus macaques, and humans.
Materials: Kidney S9 from CD-1 mice, SD rats, Cynomolgus macaques, and humans were purchased from BioIVT or XenoTech LLC and stored in a −80° C. refrigerator.
Experimental procedure: Eight 96-well plates, designated T0, T5, T15, T30, T45, T60, Blank, and NCF60, were prepared. The first six incubation plates corresponded to reaction time points of 0, 5, 15, 30, 45, and 60 minutes, respectively. No test sample or control compound was added to the Blank plate.
The T0, T5, T15, T30, T45, and T60 plates were added with a 2 μL working solution of the test sample (10 mM of a solution of the compound to be tested in DMSO, diluted to 100 μM with 100% acetonitrile) and 100 μL of a S9 working solution (kidney S9 protein concentration of 1.0 mg/mL), and the Blank plate was only added with the S9 working solution. The above incubation plates were then placed in a 37° C. water bath for pre-incubation for about 10 minutes.
At the end of the pre-incubation, 98 μL of an auxiliary enzyme working solution was added to each sample well except the TO plate to start the reaction. […]

One may read the Kd as the constant that tells how readily two partners part at equilibrium. A lower Kd goes with a tighter complex. The term AUC(0-t) denotes the area under the concentration-time curve up to a stated or last time point. Low readings indicate low exposure, high ones high exposure. The term clearance denotes a measure of how efficiently the substance is removed, as volume per time. Lower therefore signals a low capacity for elimination. Broadly, the half-life is the time needed for the level to fall by half in the phase considered. A low value points to fast loss. Broadly, the microsomal CLint is the capacity of the preparation to metabolise the compound, expressed as a volume cleared per time.

Where a name gives a salt, the structure may show the parent alone. Starred links: 1 amine or outer side, 2 acyl side, 3 side chain; linkers in the order of their positions; H or OH if unused. Positions of bridges follow the written chain, without caps; N, C: chain ends. Non-standard residues stand in square brackets, D forms with d. Residues, ends and D or L forms follow the SMILES beside them. Chains are numbered I, II in the order given. *: point of attachment. TATA = O=C(CC[*:1])N1CN(C(=O)CC[*:2])CN(C(=O)CC[*:3])C1; Dolaproine = CO[C@@H]([C@@H]1CCCN1)[C@@H](C)C(=O)O; Dil = CC[C@H](C)[C@H](NC)[C@@H](CC(=O)O)OC; 1Nal = N[C@@H](Cc1cccc2ccccc12)C(=O)O; X2 = O=C(CCCC(=O)[*:2])NCCC(=O)[*:1]; PABC = O=C(OCc1ccc(N[*:1])cc1)[*:2]; X1 = C[C@@H](N*)[C@@H](O)c1ccccc1; Hyp = O=C(O)[C@@H]1C[C@@H](O)CN1; hArg = N=C(N)NCCCC[C@H](N)C(=O)O; Cit = NC(=O)NCCC[C@H](N)C(=O)O; Pen = CC(C)(S)[C@H](N)C(=O)O; NMeV = CN[C@H](C(=O)O)C(C)C; Sar = CNCC(=O)O Bounds are passed on as bounds.

The molecule `CC[C@H](C)[C@@H]([C@@H](CC(=O)N1CCC[C@H]1[C@H](OC)[C@@H](C)C(=O)N[C@H](C)[C@@H](O)c1ccccc1)OC)N(C)C(=O)[C@@H](NC(=O)[C@H](C(C)C)N(C)C(=O)OCc1ccc(NC(=O)[C@H](CCCNC(N)=O)NC(=O)[C@@H](NC(=O)CCCC(=O)NCCC(=O)N(C)CC(=O)N(C)CC(=O)N(C)CC(=O)N(C)CC(=O)N(C)CC(=O)N(C)CC(=O)N(C)CC(=O)N(C)CC(=O)N(C)CC(=O)N(C)CC(=O)N[C@H]2CCCCNC(=O)C[C@@H](C(=O)N[C@H]3CSCCC(=O)N4CN5CN(C4)C(=O)CCSC(C)(C)[C@H](NC(=O)[C@@H](CC(=O)O)NC(=O)[C@H](Cc4cccc6ccccc46)NC(=O)[C@@H]4CCCN4C3=O)C(=O)N[C@@H](CCSC)C(=O)N[C@@H](CCCCNC(=N)N)C(=O)N[C@@H](CC(=O)O)C(=O)N[C@@H](Cc3c[nH]c4ccccc34)C(=O)N[C@@H](CO)C(=O)N[C@@H]([C@@H](C)O)C(=O)N3CCC[C@H]3C(=O)N3C[C@H](O)C[C@H]3C(=O)N[C@@H](Cc3c[nH]c4ccccc34)C(=O)N[C@H](C(N)=O)CSCCC5=O)NC(=O)CN(C)C2=O)C(C)C)cc1)C(C)C` [Acetate salt of PDC_2] (I: [Sar][Sar][Sar][Sar][Sar][Sar][Sar][Sar][Sar][Sar]K[Sar]DCP[1Nal][dD][Pen]M[hArg]DWSTP[Hyp]WC-NH2 / II: V[Cit][PABC][NMeV]V[Dil][Dolaproine]-X1; lactam I:11-I:13; linker I:14-I:18-I:28 via TATA; linker I:N-II:N via X2) yielded a Kd in series [1] of 0.43 nM. Moreover, in series [2], the area under the curve AUC(0-t) was determined as 4.4 µM·h, the C0 is 6.9 µM, the clearance was determined as 2.7 mL/min/kg and the half-life is 42 min. In addition, the Vd in series [2] (read-out: Vdss) came to 0.1 L/kg. In addition, in series [3], the half-life at 1 μM was > 145 min and the intrinsic metabolic clearance (microsomal CLint) at 1 μM was < 9.6 µL/min/mg.

For the origin of these results see patent US12539335B2, “Tricyclic polypeptide conjugated drug and use thereof” (CONJUSTAR (ZHUHAI) BIOLOGICS CO., LTD., priority 2021, dated 2026).
